Assay results as given in US20220177583A1 (University of California, published 2022).
Where a chain is given by its changes, count along the chain named.

T1: mouse CLDN6 fused to GFP, expressed on engineered HEK293T cells (mouse, UniProt Q9Z262 1-219)
T1 construct: whole, on cells; also called HEK293T-CLDN6-mGFP Artificial CLDN6+ (mouse); murine CLDN6; not shown: GFP tag
T1 sequence (looked up): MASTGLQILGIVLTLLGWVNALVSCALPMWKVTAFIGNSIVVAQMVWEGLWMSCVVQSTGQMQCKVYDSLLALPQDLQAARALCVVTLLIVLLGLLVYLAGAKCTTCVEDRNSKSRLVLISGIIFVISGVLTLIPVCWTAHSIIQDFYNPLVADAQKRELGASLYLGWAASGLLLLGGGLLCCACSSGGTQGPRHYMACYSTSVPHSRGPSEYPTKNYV

T2: human CLDN6, endogenously expressed on cancer cell lines (human, UniProt P56747 1-220)
T2 construct: also called Endogenous CLDN6+; CLDN6 on ARK2, OVCA429, UMUC4 cells
T2 sequence: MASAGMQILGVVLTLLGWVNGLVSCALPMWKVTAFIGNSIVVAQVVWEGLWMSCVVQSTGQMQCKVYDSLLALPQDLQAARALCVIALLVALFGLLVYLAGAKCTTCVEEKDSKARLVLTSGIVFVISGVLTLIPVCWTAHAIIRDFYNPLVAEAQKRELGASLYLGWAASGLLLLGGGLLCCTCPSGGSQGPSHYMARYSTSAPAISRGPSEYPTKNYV

T3: CLDN9-GFP expressed on engineered HEK293T cells (human, UniProt O95484 1-217)
T3 construct: whole, on cells; also called HEK293T CLDN9-mGFP; Artificial CLDN9+; not shown: GFP tag
T3 sequence (looked up): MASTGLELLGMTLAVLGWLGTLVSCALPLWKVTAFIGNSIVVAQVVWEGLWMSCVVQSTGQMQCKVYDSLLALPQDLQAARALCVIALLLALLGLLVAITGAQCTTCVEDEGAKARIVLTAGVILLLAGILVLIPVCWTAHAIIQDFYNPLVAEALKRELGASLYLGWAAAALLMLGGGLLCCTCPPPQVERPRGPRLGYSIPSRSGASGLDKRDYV

T4: CLDN4-GFP expressed on engineered HEK293T cells (human, UniProt O14493 1-209)
T4 construct: whole, on cells; also called HEK293T CLDN4-mGFP; Artificial CLDN4+; not shown: GFP tag
T4 sequence (looked up): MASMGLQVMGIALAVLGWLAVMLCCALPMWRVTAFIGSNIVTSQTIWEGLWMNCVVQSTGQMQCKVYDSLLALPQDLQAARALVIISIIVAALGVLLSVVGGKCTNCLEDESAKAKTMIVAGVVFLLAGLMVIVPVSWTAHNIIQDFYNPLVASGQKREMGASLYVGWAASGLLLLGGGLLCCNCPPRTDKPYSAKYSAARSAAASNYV

B1: AB1 (antibody, V domains shown)
VH: QVQLQQSAAELARPGASVKMSCKASGYTFTTYTMHWVKQRPGQGLEWIGFINPSSGYTDYNQKFKDRTTLTADKSSSTVYMQLSSLTSEDSAVYYCANGDYYVAYWGQGTLVTVSA
VL: QIVLTQSPAIMSASLGERVTMTCTASSSVSSTYFHWYQQKPGSSPKLWIYSTSNLASGVPRRFSGSASGTSYSLTISSMEAEDAATYYCHQYHRSPLTFGAGTKLELK
notes: Full-length IgG (ExpiCHO)
B2: AB2 (antibody, V domains shown)
VH: EVKLEESGGGLVQPGGSMKLSCVASGFTFSDYWMNWVRQSPEKGLEWVAQIRLKSDNYATHYAESVKGRFTISRDDSKRSVYLQMNNLRAEDTGTYYCNDGPPSGCWGQGTTLIVSS
VL: DIQMTQSPASLSASVGETVTITCRISENIYSYLAWYQQKQGKSPQLLVYNAKILVEGVPSRFSGSGSGTQFSLKINSLQPEDFGNYYCQHHYTVPWTFGGGTKLEIK
notes: Full-length IgG (ExpiCHO)
B3: AB3 (antibody, V domains shown)
VH: B2 VH with D31N
VL: B2 VL
notes: Full-length IgG (ExpiCHO)
B4: AB4 (antibody, V domains shown)
VH: QVQLQQSGAELARPGASVKMSCKASGYTFTSYTMHWIKQRPGQGQEWIGYINPSSTYTHYIKKFKDKATLTADKSSSTAYMQLRSLTSEDSAVYYCSRGELGGFAYWGQGTLVTVSA
VL: DVVMTQTPLSLPVSLGDQASISCRSSQSLVHSDGNTYLNWYLQKPGQSPKLLIYKVSNRFSGVPDRFSGSGSGTDFTLKIRRVEAEDLGVYFCSQSTHVPYTFGGGTKLEIK
notes: Full-length IgG (ExpiCHO)
B5: AB5 (antibody, V domains shown)
VH: EVQLQQSGPELVKPGASVKMSCKASGYIFTHYIMHWVKQKPGQGLEWIGCINPYNDGTKYNEKFKGKATLTSDKSSSTAYMELSSLTSEDSAVYYCARYYGYPYYSMDYWGQGTSVTVSS
VL: DVLMTQTPLSLPVSLGDQPSISCRSSQSIVHSNGNTYLDWYLQKPGQSPKLLIYKVSNRFSGVPDRFSGSGSGTDFTLKISRVEAEDLGVYYCFQGSHVPFTFGSGTRLEIK
notes: Full-length IgG (ExpiCHO)
B6: AB6 (antibody, V domains shown)
VH: DVQLQESGPGLVKSSQSLSLTCSVTGYSITSGYYWKWIRQFPGNKLEWMGYISYDGGINYNPSLKNRISITRDTSKNQFFLKLNSVTTEDTAKYYCARFGKGAMDYWGQGTSVTVSS
VL: AIVMFQSPSSLVVSAGEKVTMSCKSSQSLLNSRTRKNYLAWYQQKPGQSPKLLIYWASTRESGVPDRFTGSGSGTDFTLTISSVQAEDLAVYYCKQSYYLYTFGGGTKLEIK
notes: Full-length IgG (ExpiCHO)
B7: AB7 (antibody, V domains shown)
VH: EVQLQQSGPELVKPGASMKISCKASGYSFTGYTMNWVKQSHGKNLEWIGLINPYNGGTNYNQKFKGKATLTVDKSSSTAYMELLSLTSEDSAVYYCARGVYDYDGFTYWGQGTLVTVSA
VL: B1 VL with E17D, T32S, F34L, R61A, A67G, L97P, A101S, L107I
notes: Full-length IgG (ExpiCHO)
B8: AB8 (antibody, V domains shown)
VH: QVQLQQSGAELARPGASVKMSCKASGYTFTTYTMHWLKQRPGQGLEWIGYINPRSGYSNYNQKFKDKATLTADKSSNTAYMQLNTLTSEDSKVYYCSRGELGGFAYWGQGTLVTVSA
VL: B4 VL with N39Y, R81S
notes: Full-length IgG (ExpiCHO)
B9: AB9 (antibody, V domains shown)
VH: EVQLQQSGPELVKPGASVKMSCKASGYRFTDYNMHWVKQSHGKSLEWIGYINPNNGGTNYNQNFKGKATLTVNKSSSTAYMELRSLTSEDSAAYYCARDYLYFFDCWGQGTTLTVSS
VL: DIQMTQSPASQSASLGESVTITCLASQTIGTWLAWYQQKPGKSPQLLIYAAASLADGVPSRFSGSGSGTRFSFKISSLQAEDFVSYYCQQLYSIPRTFGGGTKLEIK
notes: Full-length IgG (ExpiCHO)
B10: AB10 (antibody, V domains shown)
VH: QIQLVQSGPALKKPGETVKISCKASGYTFTDYSMHWIKQAPGKGLKWMGWISTETGEPTYADGFKGRFDFSLETSADTAYLSINNLTNEDTATYFCTRGLWSSFAYWGQGTLVTVSA
VL: B4 VL with S25A, D33N, N39H, Y41F, G73R, R81S, S96I
notes: Full-length IgG (ExpiCHO)
B11: AB11 (antibody, V domains shown)
VH: DVQLVESGGGLVQPRGSRKLSCAASGFTFSSFGMHWVRQAPEKGLEWVAYISSDSRTIYYADTVKGRFTISRDNPTNTLFLQMTSLRSEDTAMYYCARDYGRTYEAYWGQGTLVTVSA
VL: DIVLTQSPASLAVSLGQRATISCRASKSVSTSGYSYIHWYQQKPGQPPKLLIYLASNLESGVPARFSGSGSGTDFTLNIHPVEEEDAATYYCQHSRELPLTFGAGTKLELK
notes: Full-length IgG (ExpiCHO)
B12: AB12 (antibody, V domains shown)
VH: EVKLMESGGDLVKPGGSLKLSCAASGFTFSSYAMSWVRQTPEKRLEWVASIRSGGTTYYPDSVKGRFTISRDNARNILYLRMSSLRSEDTAIYYCAKVGGNPYPMDYWGQGTSVTVSS
VL: DIQMIQSPSSMFASLGDRVSLSCRASQDIGGNLDWYQQKPGGTIKLLIYSTSNLNSGVPSRFSGSGSGSDYSLTITSLESEDFADYYCLQRNAYPLTFGAGTKLELK
notes: Full-length IgG (ExpiCHO)
B13: AB13 (antibody, V domains shown)
VH: QVQLQQSGAELVRPGTSVKVSCKASGYAFSNYLIEWVKQRPGQGLEWIGVINPGSGGTNYNEKFKGKATMTADKSSSTAYMHLSNLTSEDSVVYFCARSYFGRSYPYTMDYWGQGTSVTVSS
VL: EIVLTQSPTTMAASPGEKITITCSASSSISSNYLHWYQQKPGFSPKLLIYRTSNLASGVPARFSGSGSGTSYSLTIGTMEAEDVATYYCQQGSSIPLTFGAGTKLELK
notes: Full-length IgG (ExpiCHO)
B14: AB14 (antibody, V domains shown)
VH: QVQLQQSGPELVRPGVSVKISCKGSGYTFTDYAMHWVKQSHAKSLEWIGVISTYSGNTNYNQKFQDKATMTVDKSSSTAYMALARLTSDDSAIYYCARRGDYSLYAMDYWGQGTSVTVSS
VL: DIVLTQSPASLAVSLGQRATISCKASQSVDYDGDNYVNWYQQKVGQPPKLLISAASNLESGIPARFSGSGSGTDFTLNIHPVEEEDAATYYCQQSNEDPFTFGSGTKLEIK
notes: Full-length IgG (ExpiCHO)
B15: AB18 (antibody, V domains shown)
VH: QVQLKQSGPELEKPGASVKISCKASGYSFTGYNMNWVKQSNGKSLEWIGNIDPYYGGSTYNQKFTGKATLTVDKSSSTAYMQLKSLTSEDSAVYYCARERSGYVFSAMDYWGQGTSVTVSS
VL: NIMMTQSPSSLAVSAGEKVTMSCKSSQSVLFSSNQKNYLAWYQQKPGQSPRLLIYWASTRESGVPDRFTGSGSGTDFTLTISNVQAEDLAVYYCHQYLSSRTFGAGTKLELK
notes: Full-length IgG (ExpiCHO)
B16: AB15 (antibody, V domains shown)
VH: B11 VH
VL: B15 VL
notes: Full-length IgG (ExpiCHO)

Assays:
[1] = molecular target: T1, mouse CLDN6 fused to GFP, expressed on …; assay: FACS dose curve, labelled mAb, HEK293T-CLDN6-mGFP (mouse) cells
[2] = molecular target: T2, human CLDN6, endogenously expressed on …; assay: FACS dose curve, labelled mAb, ARK2 cells
[3] = molecular target: T2, human CLDN6, endogenously expressed on …; assay: FACS dose curve, labelled mAb, OVCA429 cells
[4] = molecular target: T3, CLDN9-GFP expressed on engineered …; assay: FACS dose curve, labelled mAb, HEK293T CLDN9-mGFP cells
[5] = molecular target: T4, CLDN4-GFP expressed on engineered …; assay: FACS dose curve, labelled mAb, HEK293T CLDN4-mGFP cells

Row | Binder | EC50 [1] | EC50 [2] | EC50 [3] | EC50 [4] | EC50 [5]
1 | B1 | 72 nM | 105 nM | 84 nM | 2760 nM | 
2 | B2 | ≥ 5000 nM | 1360 nM | 912 nM |  | 
3 | B3 | 2490 nM | 1650 nM | 1100 nM |  | 
4 | B4 | ≥ 5000 nM | 48 nM | 168 nM | 1860 nM | 
5 | B5 | 11 nM | 8 nM | 5 nM | 25 nM | 
6 | B6 | 2220 nM | 765 nM | 394 nM | 2770 nM | 26 nM
7 | B7 | 1550 nM | 353 nM | 531 nM | 1940 nM | 2090 nM
8 | B8 | ≥ 5000 nM | 1140 nM | 1090 nM | 2770 nM | ≥ 5000 nM
9 | B9 |  | 1140 nM | 1160 nM |  | 
10 | B10 |  | 2140 nM | 2470 nM | 246 nM | 
11 | B11 | 2380 nM | 363 nM | 835 nM |  | 2240 nM
12 | B12 |  | 1300 nM | 2290 nM | 2470 nM | 2090 nM
13 | B13 |  | 1150 nM | 2290 nM |  | 
14 | B14 |  | 1300 nM | 1660 nM |  | 
15 | B15 |  | 1350 nM | 2440 nM |  | 
16 | B16 | ≥ 5000 nM |  |  |  | ≥ 5000 nM
